Laboratory results reported in patent US8242078B2, “Therapeutics to inhibit MLL-menin interaction for treating leukemia” (The University of Chicago, priority 2006, dated 2012).
Entries after “also recorded” stand apart in the source; their conditions may differ. One block for each compound: values may come before it. Peptide text beside a SMILES is read from it.

What was measured:
[1] = system: normal human CD34+ cells; assay: Erythroid differentiation of normal human CD34+ cells, day 10; format: cell-based; conditions: 7.5 μm or 10 μm
Method: (§1) To assess the effects of TAT-MLL peptide on hematopoiesis, normal human CD34^+ cells were incubated with either the TAT-MLL peptide or the TAT-scrambled peptide at a concentration of either 7.5 μm or 10 μm. There was no effect of either the TAT-MLL peptide or the TAT-scrambled peptide on myeloid or erythroid differentiation. […] CD14-PE, CD15-FITC, CD71-FITC and GlyA (CD235a)-PE antibodies were obtained from Becton Dickinson

[2] = system: normal human CD34+ cells; assay: Myeloid differentiation of normal human CD34+ cells, day 10; format: cell-based; conditions: 7.5 μm or 10 μm
Method: as §1

[3] = molecular target: T1, interaction of transfected MLL with endogenous menin (Homo sapiens, UniProt O00255); assay: Disruption of binding of transfected FLAG-tagged MLL 1-330 to endogenous menin (anti-FLAG immunoprecipitation, anti-menin Western blot); conditions: for block of the interaction of transfected MLL with endogenous menin (Western blot, FIG. 1): lysates of 293 cells transfected with FLAG-tagged MLL 1-330, incubated with peptide, anti-FLAG IP, anti-menin blot; for inhibition of the binding of transfected MLL 1-330 to endogenous menin (Western blot, FIG. 2): each peptide tested at 10, 20, and 30 μM
T1 construct: endogenous in cells; host or cells: 293 cells (lysate; cells transfected with FLAG-MLL 1-330)
T1 sequence (O00255 1-610): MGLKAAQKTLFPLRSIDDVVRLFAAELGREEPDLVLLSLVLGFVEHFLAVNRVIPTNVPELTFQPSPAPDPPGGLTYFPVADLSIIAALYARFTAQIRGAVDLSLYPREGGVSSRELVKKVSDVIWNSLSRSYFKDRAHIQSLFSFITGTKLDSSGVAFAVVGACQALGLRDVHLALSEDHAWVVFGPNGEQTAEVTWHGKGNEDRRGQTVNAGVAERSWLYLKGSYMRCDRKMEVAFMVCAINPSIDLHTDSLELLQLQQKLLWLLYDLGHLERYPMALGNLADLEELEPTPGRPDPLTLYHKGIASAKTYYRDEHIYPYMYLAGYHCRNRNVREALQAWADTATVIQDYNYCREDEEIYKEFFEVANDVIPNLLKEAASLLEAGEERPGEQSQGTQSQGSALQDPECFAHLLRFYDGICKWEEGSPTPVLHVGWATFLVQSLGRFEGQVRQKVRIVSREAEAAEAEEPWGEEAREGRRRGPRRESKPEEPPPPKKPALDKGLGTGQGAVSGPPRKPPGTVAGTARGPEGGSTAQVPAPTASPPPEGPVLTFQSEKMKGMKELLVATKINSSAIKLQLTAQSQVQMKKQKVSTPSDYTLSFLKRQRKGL
Method: To determine the precise domain that mediates the binding of MLL to menin, a series of peptides from the N-terminus of MLL were synthesized. To assess disruption of binding of transfected MLL to endogenous menin, a FLAG-tagged MLL 1-330 construct was transfected into 293 cells and the cell lysates were incubated with a series of peptides listed below or with water as a control. Cell lysates were immunoprecipitated with anti-FLAG antibody (Sigma), separated by SDS-PAGE and blotted with an anti-menin antibody (Bethyl Laboratories Inc, or Santa-Cruz). The amino acid numbers from the N-terminus of MLL are indicated below (preceding the amino acid sequence) for the peptides analyzed for their ability to disrupt the interaction of MLL and menin.
Conditional inactivation of menin results in the reversal of the transforming properties of MLL fusion proteins. A high affinity menin binding domain has been localized to the N-terminal residues of MLL, and deletion of residues 6 through 10 of MLL prevents MLL-ELL from transforming hematopoietic progenitor cells. To target the MLL-menin interaction, a series of peptides were developed for the potential to block the interaction of menin with MLL. To establish the activity of these peptides, lysates of cells transfected with FLAG-tagged N-terminal MLL sequences were examined. The lysates were immunoprecipitated with a FLAG antibody, incubated with either an MLL peptide or a control scrambled peptide, and then blotted with an anti-menin antibody. […] To examine the activity of the TAT-MLL peptide, mouse and human leukemia cell lines were treated with the TAT-MLL peptide. […] (#TIB-202, American Type Culture Collection, Manassas, Va.).

effect on erythroid differentiation (in words) [1]: no effect | effect on myeloid differentiation (in words) [2]: no effect
Compound: C[C@H](NC(=O)[C@@H]1CCCN1C(=O)[C@H](Cc1ccccc1)NC(=O)[C@H](CCCNC(=N)N)NC(=O)[C@H](Cc1c[nH]c2ccccc12)NC(=O)[C@H](CCCNC(=N)N)NC(=O)[C@H](CS)NC(=O)CNC(=O)CNC(=O)[C@H](CCCNC(=N)N)NC(=O)[C@H](CCCNC(=N)N)NC(=O)[C@H](CCCNC(=N)N)NC(=O)[C@H](CCC(N)=O)NC(=O)[C@H](CCCNC(=N)N)NC(=O)[C@H](CCCNC(=N)N)NC(=O)[C@H](CCCCN)NC(=O)[C@H](CCCCN)NC(=O)[C@@H](N)CCCNC(=N)N)C(=O)N[C@@H](CCCNC(=N)N)C(=O)N1CCC[C@H]1C(=O)NCC(=O)O [TAT-MLL, RKKRRQRRR-GG-CRWRFPARPG (SEQ ID NO: 15)] (H-RKKRRQRRRGGCRWRFPARPG-OH)

Compound: AHSCRWRFPARPG (SEQ ID NO: 11) [MLL peptide 2-14, peptide from the N-terminus of MLL, amino acids 2-14]
block of the interaction of transfected MLL with endogenous menin (Western blot, FIG. 1) [3]: block the interaction of transfected MLL with endogenous menin

Compound: AHSCRWRFPARPGTTGG (SEQ ID NO: 7) [MLL peptide 2-18, peptide from the N-terminus of MLL, amino acids 2-18]
block of the interaction of transfected MLL with endogenous menin (Western blot, FIG. 1) [3]: block the interaction of transfected MLL with endogenous menin

inhibition of the binding of transfected MLL 1-330 to endogenous menin (Western blot, FIG. 2) [3]: dose-dependent inhibition
Compound: CRWRFPARPG (SEQ ID NO: 14) [MLL peptide 5-14]
block of the interaction of transfected MLL with endogenous menin (Western blot, FIG. 1) [3]: block the interaction of transfected MLL with endogenous menin; also recorded: sufficient to block interaction with endogenous menin

Compound: CRWRFPARPGTTGG (SEQ ID NO: 10) [MLL peptide 5-18, peptide from the N-terminus of MLL, amino acids 5-18]
block of the interaction of transfected MLL with endogenous menin (Western blot, FIG. 1) [3]: block the interaction of transfected MLL with endogenous menin

Compound: HSCRWRFPARPG (SEQ ID NO: 12) [MLL peptide 3-14, peptide from the N-terminus of MLL, amino acids 3-14]
block of the interaction of transfected MLL with endogenous menin (Western blot, FIG. 1) [3]: block the interaction of transfected MLL with endogenous menin

Compound: HSCRWRFPARPGTTGG (SEQ ID NO: 8) [MLL peptide 3-18, peptide from the N-terminus of MLL, amino acids 3-18]
block of the interaction of transfected MLL with endogenous menin (Western blot, FIG. 1) [3]: block the interaction of transfected MLL with endogenous menin

Compound: MAHSCRWRFP (SEQ ID NO: 19) [MLL peptide 1-10, peptide from the N-terminus of MLL, amino acids 1-10]
block of the interaction of transfected MLL with endogenous menin (Western blot, FIG. 1) [3]: do not block the interaction of MLL with menin

Compound: MAHSCRWRFPA (SEQ ID NO: 20) [MLL peptide 1-11, peptide from the N-terminus of MLL, amino acids 1-11]
block of the interaction of transfected MLL with endogenous menin (Western blot, FIG. 1) [3]: do not block the interaction of MLL with menin

Compound: MAHSCRWRFPAR (SEQ ID NO: 21) [MLL peptide 1-12, peptide from the N-terminus of MLL, amino acids 1-12]
block of the interaction of transfected MLL with endogenous menin (Western blot, FIG. 1) [3]: do not block the interaction of MLL with menin

Compound: MAHSCRWRFPARP (SEQ ID NO: 1) [MLL peptide 1-13, peptide from the N-terminus of MLL, amino acids 1-13]
block of the interaction of transfected MLL with endogenous menin (Western blot, FIG. 1) [3]: block the interaction of transfected MLL with endogenous menin

Compound: MAHSCRWRFPARPG (SEQ ID NO: 2) [MLL peptide 1-14, peptide from the N-terminus of MLL, amino acids 1-14]
block of the interaction of transfected MLL with endogenous menin (Western blot, FIG. 1) [3]: block the interaction of transfected MLL with endogenous menin

Compound: MAHSCRWRFPARPGTTGG (SEQ ID NO: 3) [MLL peptide 1-18, peptide from the N-terminus of MLL, amino acids 1-18]
block of the interaction of transfected MLL with endogenous menin (Western blot, FIG. 1) [3]: block the interaction of transfected MLL with endogenous menin

Compound: MAHSCRWRFPARPGTTGGGGGG (SEQ ID NO: 4) [MLL peptide 1-22, peptide from the N-terminus of MLL, amino acids 1-22]
block of the interaction of transfected MLL with endogenous menin (Western blot, FIG. 1) [3]: block the interaction of transfected MLL with endogenous menin

Compound: MAHSCRWRFPARPGTTGGGGGGGRRG (SEQ ID NO: 5) [MLL peptide 1-26, peptide from the N-terminus of MLL, amino acids 1-26]
block of the interaction of transfected MLL with endogenous menin (Western blot, FIG. 1) [3]: block the interaction of transfected MLL with endogenous menin

Compound: MAHSCRWRFPARPGTTGGGGGGGRRGLGGG (SEQ ID NO: 6) [MLL peptide 1-30, peptide from the N-terminus of MLL, amino acids 1-30]
block of the interaction of transfected MLL with endogenous menin (Western blot, FIG. 1) [3]: block the interaction of transfected MLL with endogenous menin

Compound: RFPARPGTTGG (SEQ ID NO: 24) [MLL peptide 8-18, peptide from the N-terminus of MLL, amino acids 8-18]
block of the interaction of transfected MLL with endogenous menin (Western blot, FIG. 1) [3]: do not block the interaction of MLL with menin

Compound: RKKRRQRRR-GG-MAHSCRWRFPARPGTTGG (SEQ ID NO: 17) (RKKRRQRRRGGMAHSCRWRFPARPGTTGG) [TAT-MLL 1-18, longer MLL peptide, residues 1-18, fused to TAT]
inhibition of the binding of transfected MLL 1-330 to endogenous menin (Western blot, FIG. 2) [3]: dose-dependent inhibition

Compound: RWRFPARPG (SEQ ID NO: 25) [MLL peptide 6-14, peptide from the N-terminus of MLL, amino acids 6-14]
block of the interaction of transfected MLL with endogenous menin (Western blot, FIG. 1) [3]: do not block the interaction of MLL with menin

Compound: RWRFPARPGTTGG (SEQ ID NO: 22) [MLL peptide 6-18, peptide from the N-terminus of MLL, amino acids 6-18]
block of the interaction of transfected MLL with endogenous menin (Western blot, FIG. 1) [3]: do not block the interaction of MLL with menin

Compound: SCRWRFPARPG (SEQ ID NO: 13) [MLL peptide 4-14, peptide from the N-terminus of MLL, amino acids 4-14]
block of the interaction of transfected MLL with endogenous menin (Western blot, FIG. 1) [3]: block the interaction of transfected MLL with endogenous menin

Compound: SCRWRFPARPGTTGG (SEQ ID NO: 9) [MLL peptide 4-18, peptide from the N-terminus of MLL, amino acids 4-18]
block of the interaction of transfected MLL with endogenous menin (Western blot, FIG. 1) [3]: block the interaction of transfected MLL with endogenous menin

Compound: WRFPARPGTTGG (SEQ ID NO: 23) [MLL peptide 7-18, peptide from the N-terminus of MLL, amino acids 7-18]
block of the interaction of transfected MLL with endogenous menin (Western blot, FIG. 1) [3]: do not block the interaction of MLL with menin
